Molecular target: human FXa (human) (UniProt P00742)
Test: cell-based or functional assay

UniProt P00742, sequence (P00742 41-488 limits assumed): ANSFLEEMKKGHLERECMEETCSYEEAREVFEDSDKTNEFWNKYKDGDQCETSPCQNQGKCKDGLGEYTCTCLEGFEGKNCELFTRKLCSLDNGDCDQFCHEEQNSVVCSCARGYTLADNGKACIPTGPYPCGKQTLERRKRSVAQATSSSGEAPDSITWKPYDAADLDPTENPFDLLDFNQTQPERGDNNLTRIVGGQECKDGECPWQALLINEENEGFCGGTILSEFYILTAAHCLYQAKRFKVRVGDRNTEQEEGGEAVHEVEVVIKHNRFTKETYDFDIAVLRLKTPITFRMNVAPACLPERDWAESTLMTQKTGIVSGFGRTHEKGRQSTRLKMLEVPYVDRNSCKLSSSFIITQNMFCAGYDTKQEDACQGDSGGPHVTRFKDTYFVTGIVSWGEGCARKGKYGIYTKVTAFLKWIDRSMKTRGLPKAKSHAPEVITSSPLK

P. textilis snake venom FV
CT (ave) (sec), citrated plasma; Fva 10 (1/10), PL 50, Ca 50: 23.7 s | CT (ave) (sec), citrated plasma; Fva 10 (1/100), PL 50, Ca 50: 54.7 s | CT (ave) (sec), citrated plasma; Fva 25 (1/10), PL 50, Ca 50: 19.7 s | CT (ave) (sec), citrated plasma; Fva 25 (1/100), PL 50, Ca 50: 41 s | CT (ave) (sec), citrated plasma; Fva 50 (1/10), PL 0, Ca 50: 67.5 s | CT (ave) (sec), citrated plasma; Fva 50 (1/10), PL 50, Ca 50: 18 s | CT (ave) (sec), citrated plasma; Fva 50 (1/100), PL 0, Ca 50: 90.8 s | CT (ave) (sec), citrated plasma; Fva 50 (1/100), PL 50, Ca 50: 31.6 s | CT (ave) (sec), citrated plasma; Fva 50 (1/1000), PL 0, Ca 50: > 300 s | CT (ave) (sec), citrated plasma; Fva 50 (1/1000), PL 50, Ca 50: 68.7 s | CT (ave) (sec), citrated plasma; Fva (A280 = 1.080) 10, PL 50, Ca 50: 15 s | CT (ave) (sec), citrated plasma; Fva (A280 = 1.080) 25, PL 50, Ca 50: 13.6 s | CT (ave) (sec), citrated plasma; Fva (A280 = 1.080) 50, PL 0, Ca 50: 54.3 s | CT (ave) (sec), citrated plasma; Fva (A280 = 1.080) 50, PL 50, Ca 0: > 300 s | CT (ave) (sec), citrated plasma; Fva (A280 = 1.080) 50, PL 50, Ca 50: 12.7 s | Citrated Plasma Clotting Time (Sec) at FV 0.7 nM (0 nM FV: 151): 69 s | Citrated Plasma Clotting Time (Sec) at FV 7 nM (0 nM FV: 151): 32 s | Citrated Plasma Clotting Time (Sec) at FV 70 nM (0 nM FV: 151): 18 s | Citrated Plasma Clotting Time (Sec) at FV 700 nM (0 nM FV: 151): 13 s | Clotting time (sec) (1), citrated plasma; Fva 10 (1/10), PL 50, Ca 50: 24.1 s | Clotting time (sec) (1), citrated plasma; Fva 10 (1/100), PL 50, Ca 50: 53.3 s | Clotting time (sec) (1), citrated plasma; Fva 25 (1/10), PL 50, Ca 50: 19.6 s | Clotting time (sec) (1), citrated plasma; Fva 25 (1/100), PL 50, Ca 50: 39.5 s | Clotting time (sec) (1), citrated plasma; Fva 50 (1/10), PL 0, Ca 50: 68.9 s | Clotting time (sec) (1), citrated plasma; Fva 50 (1/10), PL 50, Ca 50: 18.3 s | Clotting time (sec) (1), citrated plasma; Fva 50 (1/100), PL 0, Ca 50: 84.3 s | Clotting time (sec) (1), citrated plasma; Fva 50 (1/100), PL 50, Ca 50: 32.3 s | Clotting time (sec) (1), citrated plasma; Fva 50 (1/1000), PL 0, Ca 50: > 300 s | Clotting time (sec) (1), citrated plasma; Fva 50 (1/1000), PL 50, Ca 50: 69.7 s | Clotting time (sec) (1), citrated plasma; Fva (A280 = 1.080) 10, PL 50, Ca 50: 15.2 s | Clotting time (sec) (1), citrated plasma; Fva (A280 = 1.080) 25, PL 50, Ca 50: 13.3 s | Clotting time (sec) (1), citrated plasma; Fva (A280 = 1.080) 50, PL 0, Ca 50: 54.1 s | Clotting time (sec) (1), citrated plasma; Fva (A280 = 1.080) 50, PL 50, Ca 0: > 300 s | Clotting time (sec) (1), citrated plasma; Fva (A280 = 1.080) 50, PL 50, Ca 50: 12.6 s | Clotting time (sec) (2), citrated plasma; Fva 10 (1/10), PL 50, Ca 50: 23.4 s | Clotting time (sec) (2), citrated plasma; Fva 10 (1/100), PL 50, Ca 50: 56 s | Clotting time (sec) (2), citrated plasma; Fva 25 (1/10), PL 50, Ca 50: 19.8 s | Clotting time (sec) (2), citrated plasma; Fva 25 (1/100), PL 50, Ca 50: 42.5 s | Clotting time (sec) (2), citrated plasma; Fva 50 (1/10), PL 0, Ca 50: 67 s | Clotting time (sec) (2), citrated plasma; Fva 50 (1/10), PL 50, Ca 50: 17.6 s | Clotting time (sec) (2), citrated plasma; Fva 50 (1/100), PL 0, Ca 50: 97.4 s | Clotting time (sec) (2), citrated plasma; Fva 50 (1/100), PL 50, Ca 50: 31 s | Clotting time (sec) (2), citrated plasma; Fva 50 (1/1000), PL 0, Ca 50: > 300 s | Clotting time (sec) (2), citrated plasma; Fva 50 (1/1000), PL 50, Ca 50: 67.7 s | Clotting time (sec) (2), citrated plasma; Fva (A280 = 1.080) 10, PL 50, Ca 50: 14.8 s | Clotting time (sec) (2), citrated plasma; Fva (A280 = 1.080) 25, PL 50, Ca 50: 13.8 s | Clotting time (sec) (2), citrated plasma; Fva (A280 = 1.080) 50, PL 0, Ca 50: 54.5 s | Clotting time (sec) (2), citrated plasma; Fva (A280 = 1.080) 50, PL 50, Ca 0: > 300 s | Clotting time (sec) (2), citrated plasma; Fva (A280 = 1.080) 50, PL 50, Ca 50: 12.8 s | clotting time of re-calcified citrated whole blood with 20 nM APC and 280 nM snake venom FV (no APC: 505 seconds; APC alone: 1333 seconds): 127 s

Source: patent US20110053851A1
